Source: publication PMC2172957

Molecular target: neuronal receptor for agrin (mouse (endogenous in cortical neurons))
Assay: immunostaining of cells or tissue

Q: Which reduction of C-Ag20z8 labeling at a 1:1 molar ratio of C-Ag20z8 to rC-Ag (y4z8) does the source give for “rC-Ag_(y4z8), soluble 95-kD COOH-terminal fragment of rat agrin (domain or fragment)” here?
A: 30%
